One block for each binder: values may come before it. No end group written: not given here. *: point of attachment. Biotin = O=C1N[C@H]2[C@H](CS[C@H]2CCCCC(=O)*)N1
Legend:
[1] = target: T1, human ROR2 expressed on the cell surface (human, UniProt Q01974 34-943); assay: flow cytometry, NB5 cells (neuroblastoma); set-up: unit not given here
T1 construct: Endogenous ROR2 of human tumour cell lines; also called cell surface ROR2; ROR2 on tumour cell lines
Procedure: (§1) Human tumour cell lines were authenticated using short tandem repeat (STR) analysis. They were cultured in RPMI1640 (Cellgro) supplemented with 10% fetal bovine serum (FBS, Life Technologies) at 37° C. in a 5% CO₂ humidified incubator. They were harvested, washed in PBS and reacted with ROR2-IgG at 1 ug/10⁶ tumour cells on ice for an hour. #901-IgG was used as a negative control at the same dose. After washing, a secondary PE-conjugated goat anti-human IgG, Fcγ fragment specific (1:100, Jackson ImmunoResearch) was added for another 30 min incubation. Staining was analyzed on a FACSCalibur (BD Biosciences). ROR2 (full length) antibody binding towards multiple cancer cell lines were compared with Rituxan and Herceptin antibodies. The cancer cell lines were derived from breast cancer, colorectal cancer, mesothelioma, hepatocellular carcinoma, ovarian cancer, osteosarcoma, neuroblastoma, etc. ROR2 #90 antibody could recognize most of the tumour cells tested, and in some cases, the binding intensity was higher than Herceptin (see Tables 8 to 10).

[2] = target: T1, human ROR2 expressed on the cell surface; assay: flow cytometry, SKHEP-1 cells (HCC); set-up: unit not given here
Procedure: as §1

[3] = target: T1, human ROR2 expressed on the cell surface; assay: flow cytometry, HTB132 cells (breast CA); set-up: unit not given here
Procedure: as §1

[4] = target: T1, human ROR2 expressed on the cell surface; assay: flow cytometry, MCF7 cells (breast CA); set-up: unit not given here
Procedure: as §1

[5] = target: T1, human ROR2 expressed on the cell surface; assay: flow cytometry, HTB37-Caco2 cells (CRC); set-up: unit not given here
Procedure: as §1

[6] = target: T1, human ROR2 expressed on the cell surface; assay: flow cytometry, SKBR3 cells (breast CA); set-up: reference not given here
Procedure: as §1

[7] = target: T1, human ROR2 expressed on the cell surface; assay: flow cytometry, SKOV3 cells (ovarian CA); set-up: unit not given here
Procedure: as §1

[8] = target: T1, human ROR2 expressed on the cell surface; assay: flow cytometry, SKMEL-5 cells (melanoma); set-up: unit not given here
Procedure: as §1

[9] = target: T1, human ROR2 expressed on the cell surface; assay: flow cytometry, JN DSRCT cells (DSRCT); set-up: unit not given here
Procedure: as §1

[10] = target: T1, human ROR2 expressed on the cell surface; assay: flow cytometry, TC71 cells (EW/PNET); set-up: unit not given here
Procedure: as §1

[11] = target: T1, human ROR2 expressed on the cell surface; assay: flow cytometry, U2OS cells (osteosarcoma); set-up: unit not given here
Procedure: as §1

[12] = target: T1, human ROR2 expressed on the cell surface; assay: flow cytometry, U251 LUC cells (glioma); set-up: unit not given here
Procedure: as §1

[13] = target: T1, human ROR2 expressed on the cell surface; assay: flow cytometry, H524 cells (SCLC); set-up: reference not given here
Procedure: as §1

[14] = target: T2, human ROR2 extracellular domain (ROR2 ECD recombinant protein) (human, UniProt Q01974 34-403); assay: kinetic binding analysis, full length IgG1 on human ROR2-ECD
T2 construct: also called human ROR2-ECD; hROR2-ECD

[15] = target: T3, biotin-SGSG-KTITATGVLFVRLGP ROR2 array peptide (human); assay: ELISA on biotinylated ROR2 peptide array
T3 construct: Peptide of the overlapping ROR2 peptide array, immobilised on streptavidin plates
T3 peptide: Biotin-SGSGKTITATGVLFVRLGP
Procedure: To better understand the structural basis of the ROR2-specific antibody as a drug candidate, a standard epitope mapping was performed by ELISA against a ROR2 peptide array. The peptide array covers the whole length of the ROR2 protein through 96 overlapping peptides ([…] each with 4 amino acids worth of space between them). The peptides were biotinlyated at the N-terminal to immobilize them onto streptavidin ELISA plates. A spacer (SGSG) was used to provide flexibility. The space was inserted at the N-terminal biotin-SGSG-15 amino acids. ELISA assays were performed with the full length ROR2 antibodies as the primary antibody and an anti-human Fc AP-conjugated antibody was used for detection. […] FIG. 12 indicates the epitope position in ROR2 primary structure. This sequence is not shared by ROR1 and not found in human proteins by PBLAST.

T2 sequence (Q01974 34-403): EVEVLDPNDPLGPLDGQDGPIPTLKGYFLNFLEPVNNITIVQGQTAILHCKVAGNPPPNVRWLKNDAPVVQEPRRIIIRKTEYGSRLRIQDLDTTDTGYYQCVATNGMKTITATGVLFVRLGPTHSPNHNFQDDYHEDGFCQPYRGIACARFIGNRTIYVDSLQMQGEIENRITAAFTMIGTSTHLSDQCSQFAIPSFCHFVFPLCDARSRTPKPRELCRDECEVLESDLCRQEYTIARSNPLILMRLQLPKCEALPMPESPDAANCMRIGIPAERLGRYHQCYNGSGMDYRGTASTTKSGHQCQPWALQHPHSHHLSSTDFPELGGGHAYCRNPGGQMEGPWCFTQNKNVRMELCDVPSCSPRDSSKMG
T1 sequence (Q01974 34-943 limits assumed): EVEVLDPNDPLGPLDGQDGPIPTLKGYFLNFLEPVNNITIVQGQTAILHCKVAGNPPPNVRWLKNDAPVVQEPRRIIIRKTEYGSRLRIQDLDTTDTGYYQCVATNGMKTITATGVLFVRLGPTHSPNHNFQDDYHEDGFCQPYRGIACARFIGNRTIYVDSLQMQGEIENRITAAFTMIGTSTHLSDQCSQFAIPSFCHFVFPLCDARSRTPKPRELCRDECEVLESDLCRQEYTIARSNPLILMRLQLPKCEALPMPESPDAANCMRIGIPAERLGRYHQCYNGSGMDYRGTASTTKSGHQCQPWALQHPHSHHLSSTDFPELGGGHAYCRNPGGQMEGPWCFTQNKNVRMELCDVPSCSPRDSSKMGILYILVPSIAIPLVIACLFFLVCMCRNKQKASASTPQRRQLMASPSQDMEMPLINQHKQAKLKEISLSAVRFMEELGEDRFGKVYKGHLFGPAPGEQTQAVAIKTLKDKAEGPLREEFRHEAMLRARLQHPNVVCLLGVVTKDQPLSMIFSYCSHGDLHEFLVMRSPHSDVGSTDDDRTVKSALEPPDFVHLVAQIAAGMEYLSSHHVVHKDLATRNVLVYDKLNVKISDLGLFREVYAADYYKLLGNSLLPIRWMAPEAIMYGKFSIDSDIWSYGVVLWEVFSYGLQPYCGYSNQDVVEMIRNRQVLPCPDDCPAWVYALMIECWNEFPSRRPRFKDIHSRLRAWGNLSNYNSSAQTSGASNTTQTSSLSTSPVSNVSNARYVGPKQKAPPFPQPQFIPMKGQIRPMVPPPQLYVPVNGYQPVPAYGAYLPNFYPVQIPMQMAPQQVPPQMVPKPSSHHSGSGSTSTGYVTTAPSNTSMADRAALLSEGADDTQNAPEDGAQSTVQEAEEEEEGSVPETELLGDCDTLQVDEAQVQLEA

binding intensity [1]: 17
binding intensity [2]: 21
binding intensity [3]: 4
binding intensity [4]: 3
binding intensity [5]: 6
binding intensity [6]: 5
binding intensity [7]: 5
binding intensity [8]: 1
binding intensity [9]: 3
binding intensity [10]: 10
binding intensity [11]: 39
binding intensity [12]: 5
binding intensity [13]: 7
Kd [14]: 0.063 nM
koff [14]: 4.45e-05 s⁻¹
kon [14]: 706000 M⁻¹ s⁻¹
B1: ROR2-240 full length human IgG1 antibody (antibody, V domains shown)
VH: QITLKESGPELVKPTQTLTLTCTFSGFSLSTSGMSVSWIRQPPGKALEWLARIDWDDDKYYSTSLKTRLTISKDTSKNQVVLTMTNTDPVDTATYYCARGFYLAYGSYDSWGQGTLVTVSS
VL: QSALTQPASVSGSPGQSITISCTGTSGDVGGYNYVSWYQHHPGKAPKLIIYDVNKRPSGFSDRFSGSKSGNTASLTISGLQAEDEADYYCSSYTSTSTVFGGGTKLTVLG
notes: also called clone #240 IgG1

binding intensity [1]: 20
binding intensity [2]: 23
binding intensity [3]: 8
binding intensity [4]: 27
binding intensity [5]: 13
binding intensity [6]: 15
binding intensity [7]: 36
binding intensity [8]: 2
binding intensity [9]: 5
binding intensity [10]: 21
binding intensity [11]: 29
binding intensity [12]: 9
binding intensity [13]: 16
Kd [14]: 0.715 nM
koff [14]: 0.000608 s⁻¹
kon [14]: 851000 M⁻¹ s⁻¹
B2: ROR2-27 full length human IgG1 antibody (antibody, V domains shown)
VH: QVQLVESGAEVKKPGESLKISCKASGYSFSNYWIGWVRQMPGKGLEWMGIIYPDDSDTRYSPSFQGQVTISADKSISTAYLQWYSLKVADTAKYYCVRPRGAFDIWGQGTTVTVSS
VL: QSVLTQPPSVSGAPGQRVTISCTGSSSNIGAGHAVHWYQQLPGTAPKLLIYDNANRPSGVPDRFSGSQSGTSASLAITGLQTGDEADYYCGTWDDSPSAYVFGTGTKVTVLG
notes: also called clone #27; clone #027 IgG1

Further lines, the binder ahead of its results:

B3: ROR2-23 full length human IgG1 antibody (antibody, V domains shown)
VH: EVQLVQSGAEVKKPGESLKISCQGSGYRFSKYWIGWVRQMPGKGLEWMGIIYPGDSDTRYSPSFQGQVTISADKSISTAYLQWSSLKASDTAMYYCARSFSSFIYDYWGQGTLVTVSS
VL: ETTLTQSPGTLSVSPGERATLSCRASQSVSSNLAWYQQKRGQAPRLLIYGASTRATGIPVRFSGSGSGTEFTLTISRLEPEDFAVYYCQQYGRSPLTFGGGTKVDIKR
notes: The light chain of clone 023 is labelled kappa; also called clone #23; clone #023 IgG1
binding intensity [1]: 32
binding intensity [2]: 42
binding intensity [3]: 5
binding intensity [4]: 52
binding intensity [5]: 37
binding intensity [6]: 48
binding intensity [7]: 116
binding intensity [8]: 7
binding intensity [9]: 50
binding intensity [10]: 46
binding intensity [11]: 52
binding intensity [12]: 14
binding intensity [13]: 28
Kd [14]: 0.164 nM
koff [14]: 0.000432 s⁻¹
kon [14]: 2.63e+06 M⁻¹ s⁻¹

B4: ROR2-241 full length human IgG1 antibody (antibody, V domains shown)
VH: EVQLVQSGAEVKKPGASVKVSCKASGYTFTNYYIHWVRQAPGQGLEWMGIINPTSGRTRYAQRFQGRVTMTRDTSTNTVYMDLSSLRSEDTAMYYCARSGYYWGVNGDQWGQGTLVTVSS
VL: SYELTQPLSVSVALGQTARITCGGNNIGSKNVHWYQQKPGQAPVLVIYRDSNRPSGIPERFSGSNSGNTATLTISRAQAGDEADYYCQVWDSSIVVFGGGTKLTVLG
binding intensity [1]: 56
binding intensity [2]: 53
binding intensity [3]: 45
binding intensity [4]: 21
binding intensity [5]: 24
binding intensity [6]: 27
binding intensity [7]: 42
binding intensity [8]: 5
binding intensity [9]: 27
binding intensity [10]: 12
binding intensity [11]: 60
binding intensity [12]: 120
binding intensity [13]: 32
Kd [14]: 0.31 nM
koff [14]: 0.000538 s⁻¹
kon [14]: 1.74e+06 M⁻¹ s⁻¹

B5: ROR2-90 full length human IgG1 antibody (antibody, V domains shown)
VH: EVQLVESGPGLVKPSQTLSLTCTVSGGSISSGGYYWSWIRQHPGKGLEWIGYIYYSGSTYYNPSLKSRVTISVDTSKNQFSLKLSSVTAADTAMYYCARGGLYWTYSQDVWGQGTLVTVSS
VL: QPVLTQPPSASGTPGQRVTISCSGSSSNIGSDYVSWYQQLPGTAPKLLIYRNDQRPSGVPDRFSGSKSGTSASLAISGLRSEDEADYYCVAWDDSLSGYVFGSGTKVTVLG
notes: also called clone #90; antibody #90
binding intensity [1]: 47
binding intensity [2]: 74
binding intensity [3]: 5
binding intensity [4]: 115
binding intensity [5]: 91
binding intensity [6]: 98
binding intensity [7]: 246
binding intensity [8]: 8
binding intensity [9]: 84
binding intensity [10]: 68
binding intensity [11]: 94
binding intensity [12]: 27
binding intensity [13]: 20
Kd [14]: 0.163 nM
koff [14]: 0.000167 s⁻¹
kon [14]: 1.02e+06 M⁻¹ s⁻¹
binding result [15]: binds

From patent US20180127503A1 (EUREKA THERAPEUTICS, published 2018)
